# Measurements as given in patent US5753483A, “Purified homogeneous UDP-GlcNAc (GalNAc) pyrophosphorylase” (priority 1995, dated 1998).
# Experiments:
# [1] = system: CC(=O)NC1C(OP(=O)(O)OP(=O)(O)OCC2OC(n3ccc(=O)[nH]c3=O)C(O)C2O)OC(CO)C(O)C1O; experiment: purified protein, by the assay type; settings: other: reverse direction, PP = 1 mM; 37.0 °C
# [2] = system: CC(=O)N[C@H]1[C@@H](OP(=O)(O)OP(=O)(O)OC[C@H]2O[C@@H](n3ccc(=O)[nH]c3=O)[C@H](O)[C@@H]2O)O[C@H](CO)[C@H](O)[C@@H]1O; experiment: purified protein, by the assay type; settings: other: reverse direction, PP = 1 mM; 37.0 °C
# Sequence of Pyrophosphorylase (Sus scrofa) (chain, as listed by the source): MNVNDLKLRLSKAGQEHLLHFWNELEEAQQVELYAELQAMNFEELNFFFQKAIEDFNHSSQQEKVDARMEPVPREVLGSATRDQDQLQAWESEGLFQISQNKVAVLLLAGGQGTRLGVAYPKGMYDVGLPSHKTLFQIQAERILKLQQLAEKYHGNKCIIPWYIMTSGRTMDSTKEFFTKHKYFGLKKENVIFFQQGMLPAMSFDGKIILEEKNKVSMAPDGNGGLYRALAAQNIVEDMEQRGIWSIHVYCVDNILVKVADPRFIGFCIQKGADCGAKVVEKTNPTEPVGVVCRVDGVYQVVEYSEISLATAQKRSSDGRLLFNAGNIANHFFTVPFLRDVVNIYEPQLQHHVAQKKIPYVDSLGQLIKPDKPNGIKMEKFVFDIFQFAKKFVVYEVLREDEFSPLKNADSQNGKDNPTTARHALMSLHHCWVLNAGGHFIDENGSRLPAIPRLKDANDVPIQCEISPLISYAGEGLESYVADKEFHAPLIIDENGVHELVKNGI
substance,measurement,setting,value
Pyrophosphorylase (Sus scrofa),Km,[1],45 µM
same,Km,[2],200 µM
